The pKd is −log10 of the Kd, conventionally taken in molar units. Read a high pKd as a small Kd. By stoichiometry N is commonly meant the number of molecules, sites or subunits per partner or assembly.

pKd: −log10 of the molar value.

The results in this text go back to paper PMC10897489.

Common to all, as to experiment: ITC
For assay [1], the target named is GST-NSP3 1-181 (SARS-CoV-2).
Assay [2] concerns the target His-NSP3 1-181 WT (SARS-CoV-2).
A further assay has as its target FXR1 215-360 (UniProt P51114). To be noted: reference: unphosphorylated UBAP2L 243-270 peptide.
A further assay addresses FXR1 215-360 (human).

In assay [1], FXR1 215-360 (domain or fragment) gave a negative logarithm of the Kd (pKd) of 5.65 and a stoichiometry N of 0.9. In assay [2], this substance gave a pKd of 5.54.

For the substance “UBAP2L 243-270 (from UniProt Q14157) pS254 peptide”, the “binding against the reference” value with FXR1 215-360 (sites S254) is “lost”.

Consider “UBAP2L 243-270 (from UniProt Q14157) pS262 peptide”, for which, in the assay with FXR1 215-360 (sites S262), the “binding against the reference” value was “lost”.

For the substance “UBAP2L 243-270 (from UniProt Q14157) pT246 peptide”, the KD entry with FXR1 215-360 (sites T246) was “stronger; reference 8.5”.

As for “UBAP2L 243-270 peptide (from UniProt F8W726 243-270)”, in the assay with FXR1 215-360 (human), the pKd is 5.07 and the stoichiometry N was 0.96.

In the assay with FXR1 215-360 (human), “UBAP2L 243-270 peptide, phosphorylated on Ser254 (from UniProt F8W726 243-270)” gave a negative-log Kd (pKd) of 4.59 and a stoichiometry N of 0.92.

In the assay with FXR1 215-360 (human), “UBAP2L 243-270 peptide, phosphorylated on Thr246 (from UniProt F8W726 243-270)” gave a negative logarithm of the Kd (pKd) of 5.44 and a stoichiometry N of 0.9.
